# Source: article PMC7610691 (Nature structural & molecular biology, 2020)
# T1: Ycg1 (S. cerevisiae condensin HEAT-repeat subunit) (S. cerevisiae, UniProt Q06680 1-1035)
# T1 sequence: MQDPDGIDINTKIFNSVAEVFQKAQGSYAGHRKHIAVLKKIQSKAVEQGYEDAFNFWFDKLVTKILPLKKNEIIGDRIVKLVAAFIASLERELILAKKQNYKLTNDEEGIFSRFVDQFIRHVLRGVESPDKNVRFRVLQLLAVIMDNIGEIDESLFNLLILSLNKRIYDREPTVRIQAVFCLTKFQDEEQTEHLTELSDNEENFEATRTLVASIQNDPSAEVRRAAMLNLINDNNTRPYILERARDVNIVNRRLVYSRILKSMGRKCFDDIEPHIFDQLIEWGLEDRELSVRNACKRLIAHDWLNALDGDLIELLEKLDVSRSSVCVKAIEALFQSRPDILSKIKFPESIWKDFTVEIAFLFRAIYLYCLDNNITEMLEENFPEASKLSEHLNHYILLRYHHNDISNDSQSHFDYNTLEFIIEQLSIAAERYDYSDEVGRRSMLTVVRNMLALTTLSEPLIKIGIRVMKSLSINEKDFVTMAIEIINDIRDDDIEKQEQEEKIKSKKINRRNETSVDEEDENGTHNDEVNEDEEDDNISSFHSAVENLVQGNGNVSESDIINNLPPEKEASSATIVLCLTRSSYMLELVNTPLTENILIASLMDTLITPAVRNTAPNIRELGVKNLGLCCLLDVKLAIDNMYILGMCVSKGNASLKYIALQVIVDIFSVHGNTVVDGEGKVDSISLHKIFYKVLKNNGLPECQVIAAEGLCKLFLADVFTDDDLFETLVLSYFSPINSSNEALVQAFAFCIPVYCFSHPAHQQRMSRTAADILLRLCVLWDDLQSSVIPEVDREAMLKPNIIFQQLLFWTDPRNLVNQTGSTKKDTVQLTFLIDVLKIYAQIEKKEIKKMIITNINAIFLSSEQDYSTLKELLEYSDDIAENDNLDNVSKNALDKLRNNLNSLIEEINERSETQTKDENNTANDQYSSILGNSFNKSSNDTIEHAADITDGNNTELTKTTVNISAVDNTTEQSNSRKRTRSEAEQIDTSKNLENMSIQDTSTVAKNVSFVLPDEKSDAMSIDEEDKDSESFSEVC
# T2: Smc4 (S. cerevisiae condensin subunit) (S. cerevisiae, UniProt Q12267 1-1418)
# T2 sequence: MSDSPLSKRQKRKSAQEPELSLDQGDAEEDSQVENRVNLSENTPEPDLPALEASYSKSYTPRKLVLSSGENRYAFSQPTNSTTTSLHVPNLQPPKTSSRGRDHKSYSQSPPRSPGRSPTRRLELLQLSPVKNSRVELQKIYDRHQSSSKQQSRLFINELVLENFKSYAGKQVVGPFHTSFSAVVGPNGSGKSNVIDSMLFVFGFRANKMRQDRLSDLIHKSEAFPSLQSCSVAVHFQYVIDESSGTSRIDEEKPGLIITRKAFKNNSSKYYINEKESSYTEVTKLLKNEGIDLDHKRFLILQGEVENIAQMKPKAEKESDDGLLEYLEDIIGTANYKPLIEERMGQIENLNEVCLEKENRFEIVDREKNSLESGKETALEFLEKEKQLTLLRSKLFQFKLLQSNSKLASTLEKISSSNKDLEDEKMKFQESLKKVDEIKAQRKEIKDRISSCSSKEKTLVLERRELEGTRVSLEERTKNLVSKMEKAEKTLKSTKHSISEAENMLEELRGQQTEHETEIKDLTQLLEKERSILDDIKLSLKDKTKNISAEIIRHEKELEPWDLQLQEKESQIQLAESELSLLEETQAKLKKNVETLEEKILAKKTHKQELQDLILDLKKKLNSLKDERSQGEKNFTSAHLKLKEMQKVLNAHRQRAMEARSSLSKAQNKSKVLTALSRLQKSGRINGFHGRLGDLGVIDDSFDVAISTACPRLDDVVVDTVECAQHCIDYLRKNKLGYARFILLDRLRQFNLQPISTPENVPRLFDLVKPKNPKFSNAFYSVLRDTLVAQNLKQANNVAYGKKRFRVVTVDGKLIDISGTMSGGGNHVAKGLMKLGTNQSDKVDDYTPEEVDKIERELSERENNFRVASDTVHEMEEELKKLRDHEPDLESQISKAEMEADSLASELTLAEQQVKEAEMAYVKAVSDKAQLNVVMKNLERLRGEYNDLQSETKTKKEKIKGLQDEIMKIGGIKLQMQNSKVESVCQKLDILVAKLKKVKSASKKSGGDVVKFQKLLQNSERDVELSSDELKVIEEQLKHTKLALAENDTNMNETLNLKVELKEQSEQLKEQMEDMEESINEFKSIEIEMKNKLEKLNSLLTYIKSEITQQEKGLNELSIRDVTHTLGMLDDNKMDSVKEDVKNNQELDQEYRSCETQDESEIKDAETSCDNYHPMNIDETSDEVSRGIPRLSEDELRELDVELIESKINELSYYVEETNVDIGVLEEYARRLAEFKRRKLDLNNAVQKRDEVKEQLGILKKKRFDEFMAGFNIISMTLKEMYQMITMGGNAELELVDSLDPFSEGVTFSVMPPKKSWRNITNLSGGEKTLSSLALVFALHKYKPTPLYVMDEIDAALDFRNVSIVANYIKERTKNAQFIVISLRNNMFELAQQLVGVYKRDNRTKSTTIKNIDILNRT
# Key:
# [1] = biological target: T1, Ycg1 (S. cerevisiae condensin …); assay: cryo-EM structure
# [2] = biological target: T2, Smc4 (S. cerevisiae condensin subunit); assay: cryo-EM structure
binder,measurement,setting,value
Brn1 (S. cerevisiae condensin kleisin subunit) (natural protein) MTTQLRYENNDDDERVEYNLFTNRSTMMANFEEWIKMATDNKINSRNSWNFALIDYFYDLDVLKDGENNINFQKASATLDGCIKIYSSRVDSVTTETGKLLSGLAQRKTNGASNGDDSNGGNGEGLGGDSDEANIEIDPLTGMPISNDPDVNNTRRRVYNRVLETTLVEFETIKMKELDQELIIDPLFKKALVDFDEGGAKSLLLNTLNIDNTARVIFDASIKDTQNVGQGKLQRKEEELIERDSLVDDENEPSQSLISTRNDSTVNDSVISAPSMEDEILSLGMDFIKFDQIAVCEISGSIEQLRNVVEDINQAKDFIENVNNRFDNFLTEEELQAAVPDNAEDDSDGFDMGMQQELCYPDENHDNTSHDEQDDDNVNSTTGSIFEKDLMAYFDENLNRNWRGREHWKVRNFKKANLVNKESDLLEETRTTIGDTTDKNTTDDKSMDTKKKHKQKKVLEIDFFKTDDSFEDKVFASKGRTKIDMPIKNRKNDTHYLLPDDFHFSTDRITRLFIKPGQKMSLFSHRKHTRGDVSSGLFEKSTVSANHSNNDIPTIADEHFWADNYERKEQEEKEKEQSKEVGDVVGGALDNPFEDDMDGVDFNQAFEGTDDNEEASVKLDLQDDEDHKFPIRENKVTYSRVSKKVDVRRLKKNVWRSINNLIQEHDSRKNREQSSNDSETHTEDESTKELKFSDIIQGISKMYSDDTLKDISTSFCFICLLHLANEHGLQITHTENYNDLIVNYEDLATTQAAS,binding result,[1],binds
same,binding result,[2],binds
